B1: A49MI-Duobody-TriNKET-Onartuzumab (bispecific antibody, human IgG1, kappa)
heavy 1: not shown
light 1: DIQMTQSPSSLSASVGDRVTITCKSSQSLLYTSSQKNYLAWYQQKPGKAPKLLIYWASTRESGVPSRFSGSGSGTDFTLTISSLQPEDFATYYCQQYYAYPWTFGQGTKVEIKRTVAAPSVFIFPPSDEQLKSGTASVVCLLNNFYPREAKVQWKVDNALQSGNSQESVTEQDSKDSTYSLSSTLTLSKADYEKHKVYACEVTHQGLSSPVTKSFNRGEC
heavy 2: not shown
light 2: DIQMTQSPSSVSASVGDRVTITCRASQGISSWLAWYQQKPGKAPKLLIYAASSLQSGVPSRFSGSGSGTDFTLTISSLQPEDFATYYCQQGVSFPRTFGGGTKVEIKRTVAAPSVFIFPPSDEQLKSGTASVVCLLNNFYPREAKVQWKVDNALQSGNSQESVTEQDSKDSTYSLSSTLTLSKADYEKHKVYACEVTHQGLSSPVTKSFNRGEC
B2: A49MI-Duobody-TriNKET-ABT-700 (bispecific antibody, human IgG1, kappa)
heavy 1: not shown
light 1: not shown
heavy 2: not shown
light 2: B1 light 2
B3: A49MI-Duobody-TriNKET-Emibetuzumab (bispecific antibody, human IgG1, kappa)
heavy 1: not shown
light 1: DIQMTQSPSSLSASVGDRVTITCSVSSSVSSIYLHWYQQKPGKAPKLLIYSTSNLASGVPSRFSGSGSGTDFTLTISSLQPEDFATYYCQVYSGYPLTFGGGTKVEIKRTVAAPSVFIFPPSDEQLKSGTASVVCLLNNFYPREAKVQWKVDNALQSGNSQESVTEQDSKDSTYSLSSTLTLSKADYEKHKVYACEVTHQGLSSPVTKSFNRGEC
heavy 2: not shown
light 2: B1 light 2

Target: c-MET on the surface of HT29 and HCT-116 human colon cancer cells (human, UniProt P08581 25-1390)
Assay: cell-based or functional assay

c-MET on the surface of HT29 and HCT-116 human colon cancer cells, sequence (P08581 25-1390 limits assumed): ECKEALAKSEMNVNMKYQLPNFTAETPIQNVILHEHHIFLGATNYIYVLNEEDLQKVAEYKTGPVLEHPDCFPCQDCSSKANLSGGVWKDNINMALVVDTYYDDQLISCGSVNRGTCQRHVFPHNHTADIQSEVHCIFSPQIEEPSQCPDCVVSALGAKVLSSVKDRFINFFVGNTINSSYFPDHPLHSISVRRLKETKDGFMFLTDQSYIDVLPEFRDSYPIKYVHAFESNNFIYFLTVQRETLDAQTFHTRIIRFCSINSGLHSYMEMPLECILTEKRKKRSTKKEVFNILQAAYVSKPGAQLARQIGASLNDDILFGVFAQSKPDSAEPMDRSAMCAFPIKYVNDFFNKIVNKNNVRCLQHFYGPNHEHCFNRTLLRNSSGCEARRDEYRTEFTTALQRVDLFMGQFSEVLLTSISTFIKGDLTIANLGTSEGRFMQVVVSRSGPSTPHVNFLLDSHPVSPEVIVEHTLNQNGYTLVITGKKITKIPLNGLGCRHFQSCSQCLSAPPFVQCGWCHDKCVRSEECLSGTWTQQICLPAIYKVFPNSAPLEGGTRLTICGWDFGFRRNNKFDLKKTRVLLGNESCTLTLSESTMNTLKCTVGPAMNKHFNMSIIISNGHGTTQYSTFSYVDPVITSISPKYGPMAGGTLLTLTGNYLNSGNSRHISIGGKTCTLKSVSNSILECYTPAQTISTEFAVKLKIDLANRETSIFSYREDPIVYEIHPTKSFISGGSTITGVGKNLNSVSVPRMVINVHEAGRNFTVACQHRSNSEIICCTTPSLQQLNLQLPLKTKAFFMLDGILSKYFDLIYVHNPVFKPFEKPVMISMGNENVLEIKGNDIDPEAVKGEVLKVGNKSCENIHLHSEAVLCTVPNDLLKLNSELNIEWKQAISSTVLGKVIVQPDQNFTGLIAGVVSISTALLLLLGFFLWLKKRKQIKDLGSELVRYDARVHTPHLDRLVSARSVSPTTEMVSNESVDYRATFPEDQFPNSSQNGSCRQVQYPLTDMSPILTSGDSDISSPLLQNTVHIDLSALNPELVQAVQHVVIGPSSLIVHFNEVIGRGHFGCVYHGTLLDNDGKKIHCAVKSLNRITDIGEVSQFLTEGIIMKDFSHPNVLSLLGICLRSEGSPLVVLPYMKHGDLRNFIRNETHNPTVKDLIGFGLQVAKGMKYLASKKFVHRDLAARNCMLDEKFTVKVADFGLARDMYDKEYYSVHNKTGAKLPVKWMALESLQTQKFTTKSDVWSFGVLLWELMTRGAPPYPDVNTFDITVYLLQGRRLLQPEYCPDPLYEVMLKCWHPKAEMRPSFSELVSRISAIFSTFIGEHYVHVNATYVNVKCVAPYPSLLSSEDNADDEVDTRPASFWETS

Binder | EC50 of human NK cell lysis of c-MET positive target cells (DELFIA cytotoxicity assay) [nM]
B1 | < 1
B2 | < 1
B3 | < 1
